From patent publication US20170290886

Test system: Recombinant GST-tagged MeCP2 protein (Prospec)

His-tagged PIAS1 protein
MeCP2 SUMOylation (in vitro SUMOylation assay with purified proteins): MeCP2 SUMOylation occurred when E1, E2, PIAS1 (the protein inhibitor of activated STAT1) and MeCP2 proteins were added
